{
  "source": "patent US5861254",
  "key": {"[1]": {"target": "T1, L-selectin-IgG1 Fc fusion (LS-Rg) (Homo sapiens) (UniProt P14151)", "T1 sequence": "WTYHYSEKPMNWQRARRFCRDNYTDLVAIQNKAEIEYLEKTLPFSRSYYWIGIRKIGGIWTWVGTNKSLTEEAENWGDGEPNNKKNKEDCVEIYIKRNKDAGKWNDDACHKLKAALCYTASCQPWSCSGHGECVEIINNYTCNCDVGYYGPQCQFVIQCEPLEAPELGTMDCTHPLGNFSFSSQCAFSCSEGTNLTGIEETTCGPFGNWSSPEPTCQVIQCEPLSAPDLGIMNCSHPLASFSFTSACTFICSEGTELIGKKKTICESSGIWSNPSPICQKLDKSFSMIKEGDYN", "assay": "SPR", "conditions": "2'-F pyrimidines, 2'-OH purines, SHMCK buffer with Ca and Mg"}, "[2]": {"target": "T1, L-selectin-IgG1 Fc fusion (LS-Rg) (Homo sapiens)", "assay": "filter", "conditions": "2'-F pyrimidines, 2'-OH purines"}},
  "data": [
    {"sequence": "UCGGGCGGAAUUCAGGNNNNNNNNNNNNNNNNNNNNNNNNNNNNNNCCGCAUCGUCCUCCC [Flow Cell SELEX Rnd 2 pool]", "values": [
      {"measurement": "Kd", "setting": "[1]; ka 1.7e4, kd 1.8e-3", "value": 110, "unit": "nM"}
    ]},
    {"sequence": "UCGGGCGGAAUUCAGGNNNNNNNNNNNNNNNNNNNNNNNNNNNNNNCCGCAUCGUCCUCCC [Flow Cell SELEX Rnd 3 pool]", "values": [
      {"measurement": "Kd", "setting": "[1]; ka 4.9e4, kd 1.9e-3", "value": 39, "unit": "nM"},
      {"measurement": "Kd", "setting": "[2]; nitrocellulose filter binding, pool plateau below 20% bound in final mixtures", "value": 0.16, "unit": "nM"}
    ]},
    {"sequence": "UCGGGCGGAAUUCAGGNNNNNNNNNNNNNNNNNNNNNNNNNNNNNNCCGCAUCGUCCUCCC [Flow Cell SELEX Rnd 4 pool]", "values": [
      {"measurement": "Kd", "setting": "[1]; ka 7.5e4, kd 1.8e-3", "value": 24, "unit": "nM"}
    ]},
    {"sequence": "UCGGGCGGAAUUCAGGNNNNNNNNNNNNNNNNNNNNNNNNNNNNNNCCGCAUCGUCCUCCC [Flow Cell SELEX Rnd 5 pool]", "values": [
      {"measurement": "Kd", "setting": "[1]; ka 3.7e5, kd 1.5e-3", "value": 4.1, "unit": "nM"},
      {"measurement": "Kd", "setting": "[2]; only slightly improved over round 3 (160 pM), plateau below 20% bound", "value": "< 1", "unit": "nM"}
    ]}
  ]
}
